Measurements: US20250101107A1 (REPERTOIRE IMMUNE MEDICINES, published 2025)
Substitutions are numbered along the chain they refer to. Numbers in names are those of the source.

B1: humanized 02A01-VH2-VK2 (antibody, V domains shown)
VH: EVQLVQSGAEVKKPGATLKISCKASGYTFTDFTMHWVQQAPGKGLEWIGLVNPNNGGNIYNQNFKGRATLTVDTSTSTAYMELSSLRSEDTSVYYCGRVPLYTSHGMDYWGQGTLVTVSS
VL: EIVLTQSPATLSVSPGERATISCRASESVDSYDINSMHWYQQKPGQAPRLLIYRASHLQSGIPARFSGSGSRTDFTLTISSVEPEDFATYYCQQSNEDPLTFGQGTKLEIK
B2: humanized 02A01-VH3-VK1 (antibody, V domains shown)
VH: B1 VH with N61A, Q62E, N63K, K65Q
VL: B1 VL with A47P
B3: humanized 02A01-VH1-VK2 (antibody, V domains shown)
VH: B1 VH with A9P, K12V, Q38K, G44S
VL: B1 VL
B4: humanized 02A01-VH1-VK1 (antibody, V domains shown)
VH: B1 VH with A9P, K12V, Q38K, G44S
VL: B1 VL with A47P
B5: humanized 02A01-VH3-VK2 (antibody, V domains shown)
VH: B1 VH with N61A, Q62E, N63K, K65Q
VL: B1 VL
B6: humanized 02A01-VH2-VK1 (antibody, V domains shown)
VH: B1 VH
VL: B1 VL with A47P
B7: humanized 02A01-VH1-VK3 (antibody, V domains shown)
VH: B1 VH with A9P, K12V, Q38K, G44S
VL: B1 VL with V13L, V82L
B8: 02-Parent-VH-M39L (antibody, V domains shown)
VH: EVQLQQSGPELVKPGASLKISCKASGYTFTDFTLHWVKQSHGKSLEWIGLVNPNNGGNIYNQNFKGKATLTVDTSSSTAYMELRSLTSEDSSVYYCGRVPLYTSHGMDYWGQGTSVTVSS
VL: DIVLTQSPAFLAVSLGQRATISCRASESVDSYDINSMHWYQQKPGQPPKLLIYRASHLQSGIPARFSGSGSRTDFTLTINFVEADDVATYYCQQSNEDPLTFGAGTKLELK
notes: also called murine 02A01 VH-M39L
B9: 02A01-IgG-IL12 (LC) (other, not shown: a dimerising Fc or GST)
heavy: B8 VH with L34M
light: B8 VL
B10: humanized 03A01-VH1-VK1 (antibody, V domains shown)
VH: EVQFQESGPGLVKPSQTLSLTCTVTGYSITSDFAWNWIRQPPGKELEWMGYISYSGDTNYNPSLRSRITISRDTSKNQFSLKLSSVTAADTATYYCTIRGYYTDSAFVFWGQGTLVTVSS
VL: DIQMTQSSSTLSVSLGDRVTITCKASDHINNWLAWYQQKPGKAPRLLISGATSLETGVPSRFSGSGSGLEYTLTISSLQPDDFATYYCQQYWNSPFTFGQGTKLEIK
B11: humanized 03A01-VH2-VK1 (antibody, V domains shown)
VH: B10 VH with T25S, E45G, T93V
VL: B10 VL
B12: humanized 03A01-VH4-VK1 (antibody, V domains shown)
VH: B10 VH with T25S, E45G, M49I, N59Y, R65K, I68V, T93V
VL: B10 VL
B13: humanized 03A01-VH4-VK3 (antibody, V domains shown)
VH: B10 VH with T25S, E45G, M49I, N59Y, R65K, I68V, T93V
VL: B10 VL with S8P, V13A, L15V, R45K
B14: humanized 03A01-VH4-VK2 (antibody, V domains shown)
VH: B10 VH with T25S, E45G, M49I, N59Y, R65K, I68V, T93V
VL: B10 VL with S8P, L15V, R45K
B15: 03-Parent-VH-D64E (antibody, V domains shown)
VH: DVQFQESGPGLVKPSQSLSLTCTVTGYSITSDFAWNWIRQFPGNELEWMGYISYSGETNYNPSLRSRISITRDTSKNQFFLQLDSVTTEDTATYYCTIRGYYTDSAFVFWGQGTLVTVSA
VL: DIQMTQSSSYLSVSLGGRVTITCKASDHINNWLAWYQQKPGNAPRLLISGATSLETGVPSRFTGSGSGLDYTLSITSLQTEDVATYYCQQYWNSPFTFGSGTKLEIK
notes: also called 03A01 VH-D64E
B16: 03A01-IgG-IL12 (LC) (other, not shown: a dimerising Fc or GST)
heavy: B15 VH with E57D
light: B15 VL

Legend:
[1] = biological target: T1, human CD8 on human T cells (human, UniProt P01732 22-235; P10966 22-210); assay: flow cytometry, 0.2 nM antibody on human CD8+ T cells, anti-human IgG detection (MFI AF647)
T1 construct: whole, on cells; Target as carried by human CD3+/CD8+ T cells, PBMCs or MART-1-specific T cells; the mice were immunized with human CD8a; also called hCD8; CD8 expressed on the cell surface
T1 sequence (P01732 22-235, chain 1 of 2): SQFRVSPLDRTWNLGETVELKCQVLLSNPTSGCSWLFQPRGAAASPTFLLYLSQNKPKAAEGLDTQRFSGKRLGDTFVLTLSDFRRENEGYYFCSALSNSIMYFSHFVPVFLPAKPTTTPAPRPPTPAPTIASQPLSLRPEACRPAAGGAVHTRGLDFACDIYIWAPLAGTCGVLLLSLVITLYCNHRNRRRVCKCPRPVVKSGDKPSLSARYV
T1 sequence (P10966 22-210, chain 2 of 2): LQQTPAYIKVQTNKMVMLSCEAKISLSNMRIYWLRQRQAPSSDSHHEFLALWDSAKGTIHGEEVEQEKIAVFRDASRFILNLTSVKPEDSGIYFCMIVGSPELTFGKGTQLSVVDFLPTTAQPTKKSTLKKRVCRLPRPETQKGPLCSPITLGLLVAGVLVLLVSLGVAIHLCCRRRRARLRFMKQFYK
Procedure: The 24 humanized 02A01-derived anti-CD8 antibodies (excluding 02A01-VK3(D30E/N35Q)) were screened for their ability to bind human CD8 by evaluating binding to CD8+ T cells. The non-humanized parent (“02-Parent”) and the non-humanized parent comprising a heavy chain M39L liability mutation (“02-Parent-VH-M39L”) were used as controls. […] Cells were washed with 1×phosphate buffered saline (PBS) containing 1 mg/mL bovine serum albumin (PBS/BSA) and then stained with a 1:100 dilution of DyLight650-conjugated anti-human IgG H+L polyclonal antibody (ThermoFisher cat. no. Sa5-10129) in PBS/BSA. Following a 20-30 min incubation at 4° C., the cells were washed once with PBS/BSA, and then resuspended in PBS/BSA for analysis on a FACSCelesta using Diva software (BD Biosciences). The resulting data were analyzed using FlowJo. Data were quantified and reported as Max fluorescence intensity (MFI) of human IgG-Fc. […] Complete replacement of the HCDR1 (antibodies comprising VH5) eliminated binding to the CD8+ T cells.

[2] = biological target: T1, human CD8 on human T cells; assay: cell-based or functional assay
[3] = biological target: T1, human CD8 on human T cells; assay: flow cytometry, 5 nM antibody on human CD8+ T cells, anti-human IgG detection (MFI AF647)
Procedure: The 16 above-referenced humanized 03A01-derived anti-CD8 antibodies were screened for their ability to bind human CD8 by evaluating binding to CD8⁺ T cells. The non-humanized parent (“03-Parent”) and the non-humanized parent comprising a heavy chain D64E liability mutation (“03-Parent-VH-D64E”) were used as controls. […] Cells were washed with 1 X phosphate buffered saline (PBS) containing 1 mg/mL bovine serum albumin (PBS/BSA) and then stained with a 1:100 dilution of DyLight650-conjugated anti-human IgG H+L polyclonal antibody (ThermoFisher cat. no. Sa5-10129) in PBS/BSA. Following a 20-30 min incubation at 4° C., the cells were washed once with PBS/BSA, and then resuspended in PBS/BSA for analysis on a FACSCelesta using Diva software (BD Biosciences). The resulting data were analyzed using FlowJo. Data were quantified and reported as Max fluorescence intensity (MFI) of human IgG-Fc. […] Complete replacement of the LCDR1 (antibodies comprising VK4) eliminated binding to the CD8+ T cells.

Row | Binder | binding result [1] | binding result [3] | also measured
1 | B1 | binds |  | 
2 | B2 | binds |  | 
3 | B3 | binds |  | 
4 | B4 | binds |  | 
5 | B5 | binds |  | 
6 | B6 | binds |  | 
7 | B7 | binds |  | 
8 | B8 | binds |  | 
9 | B9 |  |  | EC50 for stimulation of pSTAT4 signaling, CD8+ T cells in pre-activated human PBMCs [2]: 2.72 pM
10 | B10 |  | binds | 
11 | B11 |  | binds | 
12 | B12 |  | binds | 
13 | B13 |  | binds | 
14 | B14 |  | binds | 
15 | B15 |  | binds | 
16 | B16 |  |  | EC50 for stimulation of pSTAT4 signaling, CD8+ T cells in pre-activated human PBMCs [2]: 14.7 pM
